According to the RNAGym collection of RNA variant scans (doi:10.7554/elife.80360):

B1: HDV Ribozyme (parent)
chain: GGCCGGCAUGGUCCCAGCCUCCUCGCUGGCGCCGGCUGGGCAACAUUCCGAGGGGACCGUCCCCUCGGUAAUGGCGAAUGGGACCCA

Variants of: B1
Assay: self-cleavage, relative activity (ratio to wild type); higher = more cleavage; co-transcriptional

Variant | self-cleavage
G50U C84U | 0.665
G52A C84G | 0.764
G52A C84U | 0.691
C49A G59A | 0.938
G50C G81C | 0.125
G50A A51G | 1.03
G50A G81U | 0.281
G50A G81C | 0.225
G50A G81A | 0.415
G53A G54U | 0.962
C49G A70G | 0.733
A51C G73A | 0.383
C49A U65G | 0.539
C49A U65C | 0.923
G50A C66G | 1.05
G50A C66U | 0.989
C49U A51G | 1.01
A51G C63A | 0.734
G50U G54U | 0.668
G52U U72A | 0.496
C49G A56C | 0.785
G52A A71C | 0.744
G50U U69C | 0.962
A51G G67U | 0.65

Variant | self-cleavage
C49G C64A | 0.375
C49G C64U | 0.973
A51G C84A | 0.698
G52U G80A | 0.528
G52U G80C | 0.241
C49U C58G | 1.01
C49U C58A | 1.02
G50A G55U | 1.11
A51C U72C | 0.475
A51G C58G | 0.969
G52A G55A | 0.893
C49G G54U | 0.519
C49G A77C | 0.119
G50A G52U | 0.688
A51C G59U | 0.762
A51C G59C | 0.807
G50A G54U | 0.852
G52A A56C | 1.11
G52A U65A | 0.954
C49G C66G | 0.665
G52A U69A | 1.05
C49U G67C | 1.1
G50U G76U | 1.04
G50U C86A | 0.727

Variant | self-cleavage
G52A C62G | 0.397
G53A U79G | 0.554
G50C G54C | 0.32
C49A G80U | 0.188
C49A G80C | 0.0665
A51C G54C | 0.787
A51C A78C | 0.277
C49G G55C | 1.03
A51C C75A | 0.0449
G52C G54U | 0.513
G53A G80C | 0.351
C49U U65C | 0.902
G50A G76U | 1.01
G52C U65G | 1.04
G50A U72A | 0.677
A51U U65G | 1.3
G52C A56U | 1.12
G52C A56G | 0.851
G52C A56C | 0.95
C49G A83U | 0.35
G52C G82A | 0.712
G52C U79G | 0.475
G52U G73A | 0.546
G52C A78G | 0.787

Variant | self-cleavage
G52C A78U | 0.315
C49A G73U | 0.272
G50C G53A | 0.665
G50C G53U | 0.338
G52A C57A | 0.963
A51U C85G | 0.831
A51U C85U | 0.916
A51C C62G | 0.151
A51C G67C | 0.886
G50C U65G | 0.453
G50C U65C | 1.05
A51G G52A | 1
C49U A83C | 0.615
C49U A83G | 0.883
A51U G67A | 0.78
A51U G67U | 0.816
G53A C63U | 0.812
C49A G52C | 0.573
C49A G74U | 0.415
G50U G73A | 0.634
G52U A70C | 0.577
G52U A70U | 0.831
C49U C75A | 0.196
A51G A83C | 0.199

Variant | self-cleavage
G52A U60G | 0.897
G52A U60A | 0.975
G52C C61G | 0.886
G53A A77U | 0.483
A51U G52A | 1.15
G53A A56U | 0.873
G53A C66A | 0.794
G52A C58G | 0.974
G52A C58U | 0.888
C49G C75U | 0.201
C49U C57A | 1.07
A51C A87C | 0.937
C49U C85A | 1.17
A51G A77C | 0.322
A51G A77U | 0.682
A51G G55C | 0.481
G52U C75G | 0.297
G50C U72C | 0.494
G53A G76A | 1.16
G53A G76U | 1.11
G52C A83C | 0.475
G50U U65A | 0.981
G50U U65C | 0.791
C49G A71U | 1.04

Variant | self-cleavage
C49G A71G | 0.72
G52C G55C | 1.03
G50A C75G | 0.0852
G53A U65G | 0.708
C49U C66G | 0.892
A51G C57A | 0.877
G50C G68U | 0.597
G50C G68C | 0.249
A51C C64U | 0.9
A51C C64G | 1.09
A51U C63U | 0.88
A51U A56G | 1.11
C49U C64G | 0.684
G50A U69C | 0.688
A51C U60C | 1.15
C49G G52A | 0.543
C49G G52C | 0.287
A51C C57A | 1.02
G50C U69A | 0.831
G50C U69G | 1.05
A51C G80C | 0.0437
G50C G82C | 0.383
G50C G82U | 0.217
G50C G82A | 0.364

Variant | self-cleavage
G52A C64G | 0.935
G52C G73C | 0.339
G50U G52C | 0.803
G50U G80C | 0.111
G53C A71C | 0.356
A51C A70G | 0.849
A51C A70U | 1.15
C49G G50U | 0.47
C49A U69C | 1.13
A51U U60A | 1.14
G50C G76U | 1.04
G50A C57A | 0.972
G50A C57U | 1
G50U C63U | 0.909
G50U C63G | 0.332
A51G A70G | 1.16
G50U A71U | 1.02
G50U A83U | 0.683
G50C G73A | 0.407
G52A G82U | 0.367
C49A G55C | 0.927
A51U A78G | 0.532
G52U A83G | 0.81
G52C C84U | 0.537

Variant | self-cleavage
C49U G52U | 0.687
G52A G53A | 0.89
G50U G74A | 0.453
G50U G74C | 0.214
A51U C66U | 1.07
G53A C86U | 0.881
G52C C64U | 0.964
C49G A87G | 0.969
C49G A87U | 0.913
G50C G55U | 0.776
G50C G55A | 0.959
G52C C75A | 0.153
G50A A78C | 0.138
G50A A78G | 0.923
G52C G76A | 0.976
G50U A77C | 0.499
G52C A87U | 1
C49U G81A | 0.378
G52U U65C | 0.658
G50C C84A | 0.743
G53A U60C | 0.935
C49G C57U | 0.945
G52A G54U | 0.815
G52A G54A | 0.9

Variant | self-cleavage
G53A C58G | 0.935
C49G A78G | 0.266
C49G U79C | 0.631
G52C C63U | 0.919
G52C C63A | 1.05
G52U C63A | 0.806
A51U G53A | 0.927
C49A G54A | 0.589
C49A G54U | 0.734
A51C U79C | 0.447
C49U U69A | 0.95
C49U U69G | 1.16
G52C G53A | 0.733
A51G C86G | 0.702
C49G U65C | 0.675
G50U C85U | 1.02
A51G A78U | 0.156
C49G G76U | 1.17
G50U C64G | 0.703
G50A A71C | 0.633
A51U A71G | 0.91
A51G A87G | 1
A51G A87C | 0.751
C49U C62A | 0.652

Variant | self-cleavage
A51C A56G | 0.831
C49U A56U | 0.973
A51U G74A | 0.288
G52A G76C | 1.24
G52A G76A | 1.05
A51C G76U | 1.11
G52U U69C | 0.831
G52U U69A | 1.09
C49G G74A | 0.132
C49A U60C | 0.78
C49U C84A | 0.786
G52U U60A | 1.05
G52U U60G | 0.978
C49U G55A | 0.866
C49A G82U | 0.437
G52A G81U | 0.244
G52C U60A | 1.02
G52C U60G | 0.944
A51C C63G | 0.322
A51C C63A | 0.475
G53A G55A | 0.923
G53A G55C | 0.912
C49U C86U | 0.882
C49U C86G | 1.16

Variant | self-cleavage
G50U A51C | 0.889
C49A G67U | 0.945
G50C C61A | 0.865
G52A C85G | 1
G50U G67U | 1.02
G50A A56G | 1.15
G52C A70G | 0.702
G50A A87G | 1.01
G52A G68A | 0.788
G53A C84U | 0.777
A51U G80A | 0.344
A51G G68A | 0.901
A51G G68C | 0.831
A51U G54A | 0.973
G52U G82U | 0.382
G52U A77U | 0.743
G53A C57G | 0.992
A51U C62A | 0.759
A51U U72G | 0.534
A51C C61G | 0.731
G53A G82U | 0.359
G53A G82C | 0.246
A51U U69A | 0.95
G50U G82U | 0.633

Variant | self-cleavage
G50A A77G | 0.743
G52U G67U | 0.205
G53C A56C | 1.14
G53C A56U | 1.11
A51C G53C | 0.196
G53A C85G | 0.923
G52C C58A | 0.796
A51G G81C | 0.266
A51C C84U | 0.831
A51C C84G | 0.536
G53A C61G | 0.751
A51U G81C | 0.407
G50A U65A | 1.02
C49G G73U | 0.322
C49A G81C | 0.189
C49A G81A | 0.242
G52A C86A | 0.9
C49A G53U | 0.608
A51U U79C | 0.49
A51U U79A | 1.09
A51G C62U | 1.01
C49G C63U | 0.815
C49G C63G | 0.475
C49U G53U | 1.02

Variant | self-cleavage
C49U A77C | 0.469
G50A G68C | 0.631
G50A G68A | 0.957
A51C G55A | 0.873
G50C A78G | 0.584
G50C A78C | 0.188
G52A C61A | 1.19
A51G C75U | 0.217
G52U C84U | 0.71
G50U U60G | 0.831
G52C G74U | 0.312
C49A G76C | 1.22
G50A C61G | 0.91
C49G C84G | 0.297
C49G C84A | 0.652
G50A C84U | 0.754
G50C A87U | 1.15
G50C A87G | 0.974
G50C A87C | 0.95
G50C A56G | 0.734
G50C A56U | 0.935
A51G G80A | 0.376
G50U C58U | 0.909
A51C U65C | 0.942

Variant | self-cleavage
G50U G53A | 0.971
G50U G53C | 0.437
G50C C85G | 0.831
G50C C85U | 1.09
G52U G81U | 0.429
A51C G68C | 0.762
A51C G68A | 0.916
G50A C86U | 1.06
G50A C86A | 0.931
A51G U72A | 0.665
A51G U65C | 1.26
G52A G74C | 0.133
G52A G74U | 0.561
G52U A71G | 0.901
G50A C63U | 1.13
G50C A83C | 0.317
C49G C86G | 0.587
C49U A78C | 0.188
G53A A71G | 0.941
A51G A56U | 1
A51G A56C | 0.733
G52C C62U | 0.987
